The values that follow come from article doi:10.1101/2022.11.09.515855.

The target in series [1] is T1, Gac (C-terminal domain of GyrA, recombinant) (Borrelia burgdorferi B31) (UniProt O51396).
T1 sequence: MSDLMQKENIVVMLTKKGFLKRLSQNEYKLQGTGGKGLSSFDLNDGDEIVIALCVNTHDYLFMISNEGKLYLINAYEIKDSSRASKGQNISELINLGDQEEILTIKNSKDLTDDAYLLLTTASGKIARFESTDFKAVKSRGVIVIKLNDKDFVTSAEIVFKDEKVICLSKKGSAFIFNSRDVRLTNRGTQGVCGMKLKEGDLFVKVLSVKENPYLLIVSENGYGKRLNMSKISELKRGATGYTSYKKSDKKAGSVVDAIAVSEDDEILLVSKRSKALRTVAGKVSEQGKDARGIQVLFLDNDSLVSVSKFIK
In words: competition.

For series [2], the target named is T1, Gac (C-terminal domain of GyrA, recombinant) (Borrelia burgdorferi B31). Put plainly: competition. The source holds these as a separate data set.

Like-named read-outs stand apart in the source and are kept apart here.

As to empty pCR2.1 amplicon, the binding signal (fold change of shift) in series [1] is below 1.3. As to Ip89 ospC operator/promoter unlabeled, the binding signal (fold reduction of shift) in series [1] is 2; in series [2], above 8. In the case of B31 ospC operator/promoter unlabeled, the binding signal (fold reduction of shift) in series [1] turned out to be 2.6.
